Numbering of substitutions follows the chain as printed. Numbers in names are those of the source.
B1: Ab0343: IgG4 PE; 16H7 VL (N25S, D49A, D50A, D91A, N93S); 16H7 VH (M34V, I83T, D109E) (antibody)
VH: QVTLKESGPVLVKPTETLTLTCTVSGFSLNNARVGVSWIRQPPGKALEWLAHIFSNDEKSYSTSLKSRLTISKDTSKSQVVLTMTNMDPVDTATYYCARSVVTGGYYYEGMDVWGQGTTVTVSS
light: SYVLTQPPSVSVAPGQTARITCGGSNIGSESVHWYQQKPGQAPVLVVYAASDRPSGIPERFSGSNSGNTATLTISRVEAGDEADYYCQVWAGSSDHVVFGGGTKLTVLGQPKANPTVTLFPPSSEELQANKATLVCLISDFYPGAVTVAWKADGSPVKAGVETTKPSKQSNNKYAASSYLSLTPEQWKSHRSYSCQVTHEGSTVEKTVAPTECS
B2: Ab0360: IgG4 PE; 16H7 VL (N25S, D49E, D50H, D91E, N93S); 16H7 VH (M34V, I83T, D109E) (antibody)
VH: B1 VH
light: B1 light with A49E, A50H, A91E
B3: Ab0355: IgG4 PE; 16H7 VL (N25S, D49E, D50Y, D91E, N93S); 16H7 VH (M34V, I83T, D109E) (antibody)
VH: B1 VH
light: B1 light with A49E, A50Y, A91E
B4: Ab0347: IgG4 PE; 16H7 VL (N25S, D49A, D50S, D91A, N93S); 16H7 VH (M34V, I83T, D109E) (antibody)
VH: B1 VH
light: B1 light with A50S
B5: Ab0361: IgG4 PE; 16H7 VL (N25S, D49E, D50S, D91E, N93S); 16H7 VH (M34V, I83T, D109E) (antibody)
VH: B1 VH
light: B1 light with A49E, A50S, A91E
B6: Ab0298: IgG4 PE; 16H7 VL (N25S, D49Y, D50E); 16H7 VH (M34V, I83T, D109E) (antibody)
VH: B1 VH
light: B1 light with A49Y, A50E, A91D, S93N
B7: Ab0364: IgG4 PE; 16H7 VL (N25A, D49E, D50E, D91E, N93S); 16H7 VH (M34V, I83T, D109E) (antibody)
VH: B1 VH
light: B1 light with S25A, A49E, A50E, A91E
B8: Ab0352: IgG4 PE; 16H7 VL (N25S, D49E, D50E, D91E, N93S); 16H7 VH (M34V, I83T, D109E) (antibody)
VH: B1 VH
light: B1 light with A49E, A50E, A91E
B9: Ab0353: IgG4 PE; 16H7 VL (N25S, D49E, D50E, D91E, N93A); 16H7 VH (M34V, I83T, D109E) (antibody)
VH: B1 VH
light: B1 light with A49E, A50E, A91E, S93A
B10: Ab0357: IgG4 PE; 16H7 VL (N25S, D49E, D50A, D91E, N93S); 16H7 VH (M34V, I83T, D109E) (antibody)
VH: B1 VH
light: B1 light with A49E, A91E
B11: Ab0348: IgG4 PE; 16H7 VL (N25S, D49E, D50E, D91T, N93E); 16H7 VH (M34V, I83T, D109E) (antibody)
VH: B1 VH
light: B1 light with A49E, A50E, A91T, S93E
B12: Ab0344: IgG4 PE; 16H7 VL (N25S, D49A, D50A, D91E, N93S); 16H7 VH (M34V, I83T, D109E) (antibody)
VH: B1 VH
light: B1 light with A91E
B13: Ab0363: IgG4 PE; 16H7 VL (N25A, D49S, D50A, D91A, N93A); 16H7 VH (M34V, I83T, D109E) (antibody)
VH: B1 VH
light: B1 light with S25A, A49S, S93A
B14: Ab0345: IgG4 PE; 16H7 VL (N25S, D49A, D50A, D91E, N93A); 16H7 VH (M34V, I83T, D109E) (antibody)
VH: B1 VH
light: B1 light with A91E, S93A
B15: Ab0312: IgG4 PE; 16H7 VL (N25S, D49Y, D50E, N93E); 16H7 VH (M34V, I83T, D109E) (antibody)
VH: B1 VH
light: B1 light with A49Y, A50E, A91D, S93E
B16: Ab0356: IgG4 PE; 16H7 VL (N25S, D49E, D50A, D91A, N93S); 16H7 VH (M34V, I83T, D109E) (antibody)
VH: B1 VH
light: B1 light with A49E
B17: Ab0346: IgG4 PE; 16H7 VL (N25S, D49A, D50H, D91A, N93S); 16H7 VH (M34V, I83T, D109E) (antibody)
VH: B1 VH
light: B1 light with A50H
B18: Ab0354: IgG4 PE; 16H7 VL (N25S, D49E, D50E, D91H, N93S); 16H7 VH (M34V, I83T, D109E) (antibody)
VH: B1 VH
light: B1 light with A49E, A50E, A91H
B19: Ab0362: IgG4 PE; 16H7 VL (N25S, D49T, D50E, D91A, N93S); 16H7 VH (M34V, I83T, D109E) (antibody)
VH: B1 VH
light: B1 light with A49T, A50E
B20: Ab0350: IgG4 PE; 16H7 VL (N25S, D49E, D50E, D91A, N93S); 16H7 VH (M34V, I83T, D109E) (antibody)
VH: B1 VH
light: B1 light with A49E, A50E
B21: Ab0358: IgG4 PE; 16H7 VL (N25S, D49E, D50A, D91H, N93S); 16H7 VH (M34V, I83T, D109E) (antibody)
VH: B1 VH
light: B1 light with A49E, A91H
B22: Ab0359: IgG4 PE; 16H7 VL (N25S, D49E, D50H, D91A, N93S); 16H7 VH (M34V, I83T, D109E) (antibody)
VH: B1 VH
light: B1 light with A49E, A50H
B23: Ab0349: IgG4 PE; 16H7 VL (N25S, D49E, D50E, D91T, N93S); 16H7 VH (M34V, I83T, D109E) (antibody)
VH: B1 VH
light: B1 light with A49E, A50E, A91T

Biological target: T1, human beta-Klotho (Homo sapiens, UniProt Q86Z14)
T1 sequence (Q86Z14 1-1044): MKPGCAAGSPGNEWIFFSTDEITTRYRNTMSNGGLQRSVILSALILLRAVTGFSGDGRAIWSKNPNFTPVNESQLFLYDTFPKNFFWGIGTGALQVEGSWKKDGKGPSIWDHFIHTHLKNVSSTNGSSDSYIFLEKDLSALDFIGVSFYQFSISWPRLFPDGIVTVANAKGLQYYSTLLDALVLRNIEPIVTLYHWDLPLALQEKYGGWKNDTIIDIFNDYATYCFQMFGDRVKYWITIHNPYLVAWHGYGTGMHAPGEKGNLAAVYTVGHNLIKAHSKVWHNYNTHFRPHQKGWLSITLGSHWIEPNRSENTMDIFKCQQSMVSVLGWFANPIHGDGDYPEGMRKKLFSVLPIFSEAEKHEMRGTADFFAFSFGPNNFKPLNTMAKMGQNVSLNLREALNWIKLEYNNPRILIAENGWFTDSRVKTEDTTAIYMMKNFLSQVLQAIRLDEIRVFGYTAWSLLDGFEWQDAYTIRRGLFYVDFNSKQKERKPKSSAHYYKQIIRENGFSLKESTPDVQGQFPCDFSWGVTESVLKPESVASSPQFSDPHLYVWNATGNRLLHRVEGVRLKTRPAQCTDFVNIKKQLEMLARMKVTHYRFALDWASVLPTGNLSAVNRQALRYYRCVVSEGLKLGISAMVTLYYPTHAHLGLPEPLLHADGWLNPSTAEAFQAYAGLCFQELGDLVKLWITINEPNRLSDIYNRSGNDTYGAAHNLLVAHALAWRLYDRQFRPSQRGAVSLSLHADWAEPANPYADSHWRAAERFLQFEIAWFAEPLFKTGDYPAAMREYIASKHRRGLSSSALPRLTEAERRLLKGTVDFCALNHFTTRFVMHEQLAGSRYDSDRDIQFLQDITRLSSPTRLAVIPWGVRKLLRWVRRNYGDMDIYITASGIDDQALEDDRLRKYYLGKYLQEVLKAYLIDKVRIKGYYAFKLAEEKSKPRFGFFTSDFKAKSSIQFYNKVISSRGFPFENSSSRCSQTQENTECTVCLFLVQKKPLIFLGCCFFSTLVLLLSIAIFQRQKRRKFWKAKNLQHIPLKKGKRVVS
Assay: SPR off-rate screening of antibody mutants (human beta-Klotho captured by anti-His antibody)
Format: binding
Conditions: mean, n=3
Outline: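 His-tagged beta-Klotho was captured via an anti-His antibody amine-coupled to a CM5 chip, and antibody mutants were injected as analytes at 50 nmol/L. Association ran 240 sec, dissociation 300 sec; off-rates (kd) came from single exponential fitting.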

Molecule | koff human KLB
B1 | invalid fit
B2 | 0.00192 s⁻¹
B3 | 0.00195 s⁻¹
B4 | invalid fit
B5 | 0.00163 s⁻¹
B6 | 0.0016 s⁻¹
B7 | 0.00169 s⁻¹
B8 | 0.0004194 s⁻¹
B9 | 0.0003799 s⁻¹
B10 | 0.00185 s⁻¹
B11 | invalid fit
B12 | 0.00168 s⁻¹
B13 | invalid fit
B14 | 0.00188 s⁻¹
B15 | 0.0005302 s⁻¹
B16 | invalid fit
B17 | invalid fit
B18 | 0.00158 s⁻¹
B19 | invalid fit
B20 | invalid fit
B21 | 0.0004541 s⁻¹
B22 | invalid fit
B23 | invalid fit
